Experimental data reported in the supplement of paper PMC10065799, “High-throughput profiling of sequence recognition by tyrosine kinases and SH2 domains using bacterial peptide display” (eLife, 2023).

tested on: c-Abl (mouse); test: phosphorylation enrichment, bacterial display (enrichment ratio); higher = better substrate or ligand; peptides without Tyr show the background
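For SH2 binding enrichment of the phosphorylated peptide, bacterial display in this document: peptide library displayed on the E. coli surface as eCPX fusions, selected cells deep-sequenced, score is each peptide's frequency after selection divided by its frequency in the input.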
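For phosphorylation enrichment, bacterial display in this document: 11-residue human phosphosite peptides and single-mutation variants displayed on the E. coli surface, counted by deep sequencing, each peptide's frequency after selection divided by its frequency in the unselected input library; frequency after pTyr selection over input frequency; kinase dosed for 20-30% of maximal phosphorylation in three min.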

| Sequence | phosphorylation enrichment |
| --- | --- |
| QNTGGYFDLFG [PTPN11_Y62_D61G_YF] | 0.27 |

tested on: c-Src; test: as above

| Sequence | phosphorylation enrichment |
| --- | --- |
| AIFEGYALPHA [ACTC1_Y171_P166A_YF] | 0.414 |
| EVEPRYVVLYD [ERCC4_Y577] | 0.683 |
| RHCSGYVLIAM [EFR3A_Y73_R70C] | 0.517 |
| SRGSSYSSIPK [FLNC_Y2625] | 0.444 |
| CTHDLYMFMRE [FGFR3_Y724_I726F] | 2.37 |
| NIEPVYLNMLL [ATR_Y317] | 6.42 |
| RIGRKYKKVRF [F8_Y442] | 0.385 |
| KTGNIYRTEFG [MRPL3_Y265_M261T_YF] | 0.349 |
| KSVSQYLEMDK [CAGE1_Y438] | 0.406 |
| YETDYYQKGGK [INSR_Y1190_R1191Q] | 0.459 |
| FADIAYNYRHR [PAH_Y166_G171R] | 0.429 |
| EASGIYVKSVI [PATJ_Y396_I400V] | 0.462 |
| YYHCTYKQRMI [CLEC12A_Y242_K244Q] | 0.773 |
| VFSIDYFRVGG [NTRK2_Y706_T704I_YF] | 0.649 |
| PGGKIYISPLK [RB1_Y805_N803K] | 0.422 |
| LGGSPYPGVPV [FGFR1_Y701] | 0.359 |
| CTTIHYNNMCN [TP53_Y234_Y236N] | 0.416 |
| GESLTYASTTF [C1orf162_Y120] | 2.63 |
| ENFSEYQEISV [HEMGN_Y150_A154S] | 0.873 |
| SSYSRYIMMPN [LEF1_Y114_G113R] | 0.518 |
| GKSDPYHATSG [GJA1_Y247] | 0.404 |
| NVFGNYNNQSS [HNRNPA1_Y318_D314V] | 0.293 |
| VKFLGYPPPEI [KDR_Y357_A352V_YF] | 0.371 |
| GFVEDYRPPFY [ACVRL1_Y421_I417F] | 0.522 |
| RRRLIYRCQVG [NR2E3_Y81] | 0.556 |
| FVHDNYVIWRT [CPS1_Y1450_R1453W] | 0.721 |
| STLEVYRCHPP [IL21R_Y317_S318R] | 0.497 |
| MRTMGYMPREM [CABP5_Y62_T65R] | 0.356 |

target: Grb2 SH2 (UniProt P62993); test: SH2 binding enrichment of the phosphorylated peptide, bacterial display (enrichment ratio); higher = better substrate or ligand; peptides without Tyr show the background
Sequence (P62993 whole entry, looked up): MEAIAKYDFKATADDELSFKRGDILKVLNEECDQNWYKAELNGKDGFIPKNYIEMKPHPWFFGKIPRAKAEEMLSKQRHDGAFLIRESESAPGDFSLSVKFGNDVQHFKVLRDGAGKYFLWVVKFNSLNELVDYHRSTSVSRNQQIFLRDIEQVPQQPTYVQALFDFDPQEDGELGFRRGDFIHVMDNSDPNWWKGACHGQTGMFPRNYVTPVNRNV

| Sequence | SH2 binding enrichment |
| --- | --- |
| AIFEGYALPHA [ACTC1_Y171_P166A_YF] | 0.932 |
| EVEPRYVVLYD [ERCC4_Y577] | 0.894 |
| RHCSGYVLIAM [EFR3A_Y73_R70C] | 1.01 |
| SRGSSYSSIPK [FLNC_Y2625] | 0.769 |
| CTHDLYMFMRE [FGFR3_Y724_I726F] | 0.71 |
| NIEPVYLNMLL [ATR_Y317] | 0.836 |
| RIGRKYKKVRF [F8_Y442] | 0.488 |
| KTGNIYRTEFG [MRPL3_Y265_M261T_YF] | 1.15 |
| KSVSQYLEMDK [CAGE1_Y438] | 0.873 |
| YETDYYQKGGK [INSR_Y1190_R1191Q] | 0.863 |
| FADIAYNYRHR [PAH_Y166_G171R] | 0.866 |
| EASGIYVKSVI [PATJ_Y396_I400V] | 0.783 |
| YYHCTYKQRMI [CLEC12A_Y242_K244Q] | 1.41 |
| VFSIDYFRVGG [NTRK2_Y706_T704I_YF] | 1.2 |
| PGGKIYISPLK [RB1_Y805_N803K] | 0.933 |
| LGGSPYPGVPV [FGFR1_Y701] | 0.873 |
| CTTIHYNNMCN [TP53_Y234_Y236N] | 2.45 |
| GESLTYASTTF [C1orf162_Y120] | 0.752 |
| ENFSEYQEISV [HEMGN_Y150_A154S] | 0.827 |
| SSYSRYIMMPN [LEF1_Y114_G113R] | 0.665 |
| GKSDPYHATSG [GJA1_Y247] | 0.761 |
| NVFGNYNNQSS [HNRNPA1_Y318_D314V] | 0.78 |
| VKFLGYPPPEI [KDR_Y357_A352V_YF] | 0.809 |
| GFVEDYRPPFY [ACVRL1_Y421_I417F] | 0.96 |
| RRRLIYRCQVG [NR2E3_Y81] | 0.727 |
| FVHDNYVIWRT [CPS1_Y1450_R1453W] | 1.11 |
| STLEVYRCHPP [IL21R_Y317_S318R] | 0.715 |
| MRTMGYMPREM [CABP5_Y62_T65R] | 0.785 |

target: SHP2-C SH2; test: as above

| Sequence | SH2 binding enrichment |
| --- | --- |
| AIFEGYALPHA [ACTC1_Y171_P166A_YF] | 0.518 |
| EVEPRYVVLYD [ERCC4_Y577] | 1.84 |
| RHCSGYVLIAM [EFR3A_Y73_R70C] | 1.05 |
| SRGSSYSSIPK [FLNC_Y2625] | 0.563 |
| CTHDLYMFMRE [FGFR3_Y724_I726F] | 0.636 |
| NIEPVYLNMLL [ATR_Y317] | 1.04 |
| RIGRKYKKVRF [F8_Y442] | 0.275 |
| KTGNIYRTEFG [MRPL3_Y265_M261T_YF] | 0.871 |
| KSVSQYLEMDK [CAGE1_Y438] | 0.528 |
| YETDYYQKGGK [INSR_Y1190_R1191Q] | 1.16 |
| FADIAYNYRHR [PAH_Y166_G171R] | 0.773 |
| EASGIYVKSVI [PATJ_Y396_I400V] | 0.55 |
| YYHCTYKQRMI [CLEC12A_Y242_K244Q] | 0.953 |
| VFSIDYFRVGG [NTRK2_Y706_T704I_YF] | 2.13 |
| PGGKIYISPLK [RB1_Y805_N803K] | 1.12 |
| LGGSPYPGVPV [FGFR1_Y701] | 0.874 |
| CTTIHYNNMCN [TP53_Y234_Y236N] | 0.818 |
| GESLTYASTTF [C1orf162_Y120] | 0.679 |
| ENFSEYQEISV [HEMGN_Y150_A154S] | 0.749 |
| SSYSRYIMMPN [LEF1_Y114_G113R] | 1.56 |
| GKSDPYHATSG [GJA1_Y247] | 0.588 |
| NVFGNYNNQSS [HNRNPA1_Y318_D314V] | 0.508 |
| VKFLGYPPPEI [KDR_Y357_A352V_YF] | 0.852 |
| GFVEDYRPPFY [ACVRL1_Y421_I417F] | 1.03 |
| RRRLIYRCQVG [NR2E3_Y81] | 0.566 |
| FVHDNYVIWRT [CPS1_Y1450_R1453W] | 0.847 |
| STLEVYRCHPP [IL21R_Y317_S318R] | 0.455 |
| MRTMGYMPREM [CABP5_Y62_T65R] | 0.576 |

target: c-Src SH2; test: as above

| Sequence | SH2 binding enrichment |
| --- | --- |
| AIFEGYALPHA [ACTC1_Y171_P166A_YF] | 5.11 |
| EVEPRYVVLYD [ERCC4_Y577] | 8.72 |
| RHCSGYVLIAM [EFR3A_Y73_R70C] | 1.05 |
| SRGSSYSSIPK [FLNC_Y2625] | 1.02 |
| CTHDLYMFMRE [FGFR3_Y724_I726F] | 0.436 |
| NIEPVYLNMLL [ATR_Y317] | 0.402 |
| RIGRKYKKVRF [F8_Y442] | 0.254 |
| KTGNIYRTEFG [MRPL3_Y265_M261T_YF] | 0.547 |
| KSVSQYLEMDK [CAGE1_Y438] | 1.9 |
| YETDYYQKGGK [INSR_Y1190_R1191Q] | 1.1 |
| FADIAYNYRHR [PAH_Y166_G171R] | 0.542 |
| EASGIYVKSVI [PATJ_Y396_I400V] | 0.481 |
| YYHCTYKQRMI [CLEC12A_Y242_K244Q] | 1.41 |
| VFSIDYFRVGG [NTRK2_Y706_T704I_YF] | 1.08 |
| PGGKIYISPLK [RB1_Y805_N803K] | 0.776 |
| LGGSPYPGVPV [FGFR1_Y701] | 0.546 |
| CTTIHYNNMCN [TP53_Y234_Y236N] | 1.89 |
| GESLTYASTTF [C1orf162_Y120] | 0.649 |
| ENFSEYQEISV [HEMGN_Y150_A154S] | 0.617 |
| SSYSRYIMMPN [LEF1_Y114_G113R] | 1.32 |
| GKSDPYHATSG [GJA1_Y247] | 0.518 |
| NVFGNYNNQSS [HNRNPA1_Y318_D314V] | 0.397 |
| VKFLGYPPPEI [KDR_Y357_A352V_YF] | 0.523 |
| GFVEDYRPPFY [ACVRL1_Y421_I417F] | 0.626 |
| RRRLIYRCQVG [NR2E3_Y81] | 0.286 |
| FVHDNYVIWRT [CPS1_Y1450_R1453W] | 0.827 |
| STLEVYRCHPP [IL21R_Y317_S318R] | 0.42 |
| MRTMGYMPREM [CABP5_Y62_T65R] | 0.48 |
